From PMC2018633 (Nucleic Acids Research, 2007) come the findings set out here.

Positions count from the first letter of the chain named.

The target in assay [1] is T1, P. abyssi aCBF5 protein (Pyrococcus abyssi, UniProt Q9V1A5 1-334).
T1 sequence (looked up): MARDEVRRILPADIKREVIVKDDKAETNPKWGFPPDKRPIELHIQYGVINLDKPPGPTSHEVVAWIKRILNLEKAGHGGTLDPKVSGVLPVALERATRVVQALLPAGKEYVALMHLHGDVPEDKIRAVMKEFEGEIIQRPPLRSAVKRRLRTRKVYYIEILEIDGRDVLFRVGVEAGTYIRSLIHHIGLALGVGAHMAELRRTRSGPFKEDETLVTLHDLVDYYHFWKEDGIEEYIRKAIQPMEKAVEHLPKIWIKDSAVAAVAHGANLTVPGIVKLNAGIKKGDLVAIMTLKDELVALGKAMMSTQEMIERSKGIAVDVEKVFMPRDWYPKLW
Put plainly: cell-based or functional assay.

For assay [2], the target named is T2, aCBF5 K53A variant (Pyrococcus abyssi, UniProt Q9V1A5 1-334, K53A).
T2 sequence (looked up): T1 sequence (looked up) with K53A
Briefly: native gel or EMSA. For orientation: Mobility shift assays separate free from complexed probe on a gel.

Assay [3] deals with T3, aCBF5 H77A variant (Pyrococcus abyssi, UniProt Q9V1A5 1-334, H77A).
T3 sequence (looked up): T1 sequence (looked up) with H77A
Briefly: native gel or EMSA.

Assay [4] deals with T4, aCBF5 R202A variant (Pyrococcus abyssi, UniProt Q9V1A5 1-334, R202A).
T4 sequence (looked up): T1 sequence (looked up) with R202A
Put plainly: native gel or EMSA.

B1: P. abyssi aNOP10 protein (natural protein, Pyrococcus abyssi, UniProt Q9V0E3 1-60, looked up)
chain: MRFRIRKCPKCGRYTLKETCPVCGEKTKVAHPPRFSPEDPYGEYRRRLKRELLGIGRKEK
Turning to B1, the “level of aCBF5-tRNAAsp complexes by EMSA, with against without aNOP10” value in assay [1] was approximately 4 fold. The binding result in assay [2], in assay [3] and in assay [4] was “binds” throughout.
